Assay results: publication PMC9274004, “Deciphering the Molecular Interaction Between the Adhesion G Protein-Coupled Receptor ADGRV1 and its PDZ-Containing Regulator PDZD7” (Frontiers in Molecular Biosciences, 2022)
Where a chain is given by its changes, count along the chain named. Names and notes keep the numbering of the source.

B1: PDZ2: second PDZ of mouse PDZD7 (G206 to G292) (protein)
chain: GVRRIVHLYTTSDDFCLGFNIRGGKEFGLGIYVSKVDHGGLAEENGIKVGDQVLAANGVRFDDISHSQAVEVLKGQTHIMLTIKETG
modifications: left off: GST, N-terminal, cleaved
B2: PDZ2 G228R: PDZD7 PDZ2 carrying deafness-causing mutation G228R (protein, UniProt E9Q9W7 206-292, looked up, variant G228R)
chain: B1 chain with G23R
B3: G103R: full-length murine PDZD7-GFP carrying G103R variant (protein, UniProt E9Q9W7 1-1021, looked up, variant G103R)
chain: MARGFTVGFDPLGLGELSSGSLSSVSSRGHLGSDSGSTATRYLLRKQQRLLNGPSRGIRASSPMGRVILINSPIEANSDESDIIHAVRVEKSPSGRLGFSVRRGSEHGLGIFVSKVEEGSSAERAGLCVGDKITEVNGLSLESTTMGSAVRLLTSSSCLHMMVRRMGRVPGIKFSKEKTTWVDVVNRRLVVEKCSSTPSDRSSEDGVRRIVHLYTTSDDFCLGFNIRGGKEFGLGIYVSKVDHGGLAEENGIKVGDQVLAANGVRFDDISHSQAVEVLKGQTHIMLTIKETGRYPAYKEMVSEYCWLDRLSNGVLQQLSPASESSSSVSSYASSAPCSSGSLPSDRMDVCLGPEEPTSHGPGWGRADTAMQTEPDLDSRVETWCSVRPTVILRDTAIRSDGPSSTRHLDSALSESPKTALLLALSRPRTPITRSQSHLTLWEEKKQRKKEKSGSSGEKGALQRSKTLMNLFFKGGRQGRPAGDGHREAWTLDSRSPTKVRPRLDLEKAGSVGPVQKFVTWRLRRDRERGRALLSARSGSPSGQAPTVNEQVQAWESRRPLIQDLARRLLTDDEVLAVTRHCSRYVHEGGVEDLVRPLLAILDRPTKLLLLRDIRSVVAPTDLGRFDSMVMPVELEAFEALKSRAVGPSALRPTRQDTPPKRHLITPVPDSRGGFYLLPVNSSEDEDGEIREKLGVLKVSLGASAPHHKGIPPLQDVPVDAFSLRRGACAPPPQPPPVAPRPPRPNWLLTEPLSREDTQQNQSQTPAQSCSRSRSRSRSRSHSRGQGKSPGRRRSPSPAPIATAATANGRYHRPRKARPLLPRLLDGQVAKVGARQGPLENGRIAEEAVGNVSTGALRTITLSKMKQSLGISISGGIESKVQPMVKIEKIFPGGAAFLCGDLQAGFELVAVDGESLEQVTHQRAVDTIRRAYRNKAREPMELVVRVPGPGLLPLASDLRVVKDQSLAPDCPSALGPVDDARILTQLPPPEARQLQQSLSSALKVPQSIPKLSPILKDPHDPS
modifications: full-length C-terminal GFP fusion
notes: full-length murine PDZD7-GFP carrying G103R variant
B4: G228R: full-length murine PDZD7-GFP carrying G228R variant (protein, UniProt E9Q9W7 1-1021, looked up, variant G228R)
chain: B3 chain with R103G, G228R
modifications: full-length C-terminal GFP fusion
notes: full-length murine PDZD7-GFP carrying G228R variant

How the values were obtained:
[1] = Aggregation / sample stability of purified PDZ2 constructs; format: physicochemical
Source text: The biochemical behavior of PDZD7 PDZ2 drastically differs from PDZ1, with or without its C-terminal extension. […] In order to further establish the accessible folding states of the PDZ2 extension, we used the same metadynamics approach as for PDZ1ext and probed its conformational energy landscape (Figure 3C).

ADGRV1 β subunit = experiment: Pull-down of ADGRV1 β subunit by full-length PDZD7-GFP from HeLa cell lysates; format: binding, murine; conditions: PDZD7-GFP bait, anti-GFP beads, 4°C 1 h, western blot, vs no bait
Protocol: (§1) HeLa cells were maintained in Dulbecco’s modified Eagle’s medium (DMEM) containing 10% fetal calf serum (FCS). PDZD7 constructs correspond to the full-length murine sequence in fusion with a N-terminal strep tag and a C-terminal GFP, wild-type or carrying G103R/G228R variants, cloned in a PMT3 vector. The ADGRV1 construct corresponds to the murine β subunit of the receptor (5884-6298) cloned in a pRK5 vector. Plasmids were transfected in separate HeLa cultures using 25 μg (PDZD7) and 10 μg (ADGRV1) of DNA per 10 cm dish using TurboFect™ Transfection Reagent (ThermoFisher Scientific) at 3 μl per μg of transfected DNA. Mixes were prepared in volumes of 1 ml/plate (in DMEM), vortexed and incubated up to 30 min at room temperature, cell media were renewed before transfection. After drop by drop addition of the transfection mix, cells were maintained at 37°C for 14 h for protein expression. Cells were dissociated using Gibco™ Trypsine-EDTA (0,05%), subsequently inactivated by addition of DMEM containing 10% FCS. Cells were counted, pelleted and resuspended at similar concentrations in PBS Tween 0.01%, Dodécyl-β-D-maltoside (DDM) 0.1% containing anti-proteases (buffer). Benzonase (Sigma) was added before sonication of the cells (40 mA amplitude, 10 pulses of 12 s with 18 s intervals, in ice). An identical volume of ADGRV1 β transfected cell lysate was mixed to either PDZD7 WT, G103R or G228R transfected cell lysates. PDZ proteins have different expression levels, meaning that different amounts of sample are needed to saturate the dynabeads with the PDZ proteins. Pull down experiments have been performed several times allowing us to estimate the yield of expression of each PDZ construct for a given amount of cells. […] Target proteins were detected using mouse α-GFP (LivingColors™ JL-8, Takara) and rabbit α-ADGRV1 (custom, raised against the cytoplasmic domain) antibodies (1/2000 in 5% milk TBST), as well as secondary α-mouse and α-rabbit IgG antibodies coupled to HRP (1/2000 in 5% milk TBST). […]

[2] = Degradation of PDZD7-GFP variants expressed in HeLa cells; conditions: western blot, compared to the wild-type
Protocol: as §1, with “Cells were dissociated using Gibco™ Trypsine-EDTA (0,05%), subsequently inactivated by addition of DMEM containing 10% FCS.” left out, “(buffer).” for “(buffer). Benzonase (Sigma) was added before sonication of the cells (40 mA amplitude, 10 pulses of 12 s with 18 s intervals, in ice). An identical volume of ADGRV1 β transfected cell lysate was mixed to either PDZD7 WT, G103R or G228R transfected cell lysates. PDZ proteins have different expression levels, meaning that different amounts of sample are needed to saturate the dynabeads with the PDZ proteins. Pull down experiments have been performed several times allowing us to estimate the yield of expression of each PDZ construct for a given amount of cells.”

Molecule	sample stability ([1]; 15N-labelled PDZ2 constructs, NMR)	aggregation ([1]; at temperatures higher than 15 °C, despite extensive screening of buffer conditions)	aggregation ([1]; during biophysical experiments, low yield)	binding of ADGRV1 β subunit (pull-down) (ADGRV1 β subunit)	degradation [2]
B1	stable for a few hours only	Rapid aggregation			
B2			severe aggregation		
B3				a decrease of ADGRV1 quantity bound to the beads was observed in comparison with wild-type PDZD7, similar to the experiment performed without bait	higher tendency for degradation
B4				a decrease of ADGRV1 quantity bound to the beads was observed in comparison with wild-type PDZD7, similar to the experiment performed without bait	higher tendency for degradation
